The assay relates to E2F1/Dp-1 heterodimer. Kind of assay: Rb activity assay (LB-Rb with E2F1-SB, DP1 split luciferase). Also noted: key to Observed activity: N—no activity; A—active as WT; R—reduced activity compared to the WT. The format is cell-based, human. Particulars: for luciferase activity / E2F1 interaction of Rb mutant: LB-Rb and E2F1-SB with Dp-1; for Observed activity / % (/wt): Rb mutants; for % (/wt): activity relative to WT. From the text: An assay that could measure the interaction between Rb, E2F1, and Dp-1 was developed. Since Dp-1 forms a heterodimer with E2F1 and that interaction is crucial for Rb/E2F1 binding, the assay was comprised of three components. When two proteins (Rb and E2F1) are in close proximity or in complex, a light signal was observed. For the purposes of the current assay, split-luciferase complementation was used to measure the interaction between Rb and E2F1. The NanoBiT assay system by Promega (Madison, Wis.; Dixon et al., 2015, ACS ChemBiol) was used in our split luciferase complementation design.
Chain of E2F1/Dp-1 heterodimer (Q01094 58-437 limits assumed): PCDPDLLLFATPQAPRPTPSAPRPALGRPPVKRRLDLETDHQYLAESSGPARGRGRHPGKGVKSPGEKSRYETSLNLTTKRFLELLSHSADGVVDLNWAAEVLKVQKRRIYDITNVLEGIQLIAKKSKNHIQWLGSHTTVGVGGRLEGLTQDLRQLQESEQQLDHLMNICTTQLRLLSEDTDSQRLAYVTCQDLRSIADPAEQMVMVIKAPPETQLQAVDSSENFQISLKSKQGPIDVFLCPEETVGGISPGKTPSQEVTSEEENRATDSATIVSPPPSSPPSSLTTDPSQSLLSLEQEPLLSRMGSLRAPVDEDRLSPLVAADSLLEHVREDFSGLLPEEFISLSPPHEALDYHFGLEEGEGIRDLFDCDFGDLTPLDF
Chain of E2F1/Dp-1 heterodimer (Q14186 whole entry, further chain): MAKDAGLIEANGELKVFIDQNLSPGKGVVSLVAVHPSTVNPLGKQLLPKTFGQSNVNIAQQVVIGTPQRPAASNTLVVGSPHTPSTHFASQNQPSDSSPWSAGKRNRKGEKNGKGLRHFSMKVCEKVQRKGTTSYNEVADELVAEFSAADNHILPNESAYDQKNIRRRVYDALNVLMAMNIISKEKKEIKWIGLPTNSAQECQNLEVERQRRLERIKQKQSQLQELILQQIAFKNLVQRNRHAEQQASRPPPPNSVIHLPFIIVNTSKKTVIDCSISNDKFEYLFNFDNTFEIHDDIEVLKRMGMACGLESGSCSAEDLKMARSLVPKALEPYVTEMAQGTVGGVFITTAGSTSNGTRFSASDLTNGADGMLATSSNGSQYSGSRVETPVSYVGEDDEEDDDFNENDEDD
FIG. 16 depicts the design of a signal system to measure Rb activity. Under basal conditions inside the cell, Rb was active and interacted with the E2F1/Dp-1 heterodimer. For this assay design, cDNAs of Rb linked to different parts of the luciferase protein, either termed as the “Small BiT” (SB), or “Large BiT” (LB) and E2F1 linked to the opposite portion of the luciferase protein were created. When Rb and E2F1/Dp-1 bind, the NanoBiT parts of the luciferase form a complex and emitted a light signal when the luciferase (NanoGlo) substrate was added.
Using the described assay design, HEK293 CDK DKO cells were transiently transfected with different combinations of SB-Rb or LB-Rb and E2F1-LB or E2F1-SB components containing C-terminal and N-terminal constructs (FIG. 17). Relative intensities generated are presented in FIG. 17 as relative luminescence units (RLU). The data represents a sample experiment where each condition was performed in triplicate and represent mean+SD.
The LB-Rb and E2F1-SB with Dp-1 were tested for Rb activity using known Rb null mutants: R661W and C706F (FIG. 18A). […] Rb in-frame (del35) and out-of frame (del1) deletion mutants (FIG. 18B) were constructed and the observed luciferase activity was close to 0, in particular for del1 mutant, because Rb-E2F1 binding was destroyed.
Within the provided assay design, stable cell lines using the HEK293 CDK DKO cell parent line expressing E2F1-SB and Dp-1 were produced. After selection and screening for positive clones using an LB-Rb-mediated increase in signal, four stable single cell clones were selected and evaluated using different Rb mutants (FIGS. 19A and 19B). The response to E2F1 interaction was also checked by using the plasmid and linear form of DNA. Cell line #37 was selected for all our experiments in assay development due to its favorable response.
The conditions of the assay were further optimized by analyzing different cell numbers and Rb concentrations (FIG. 20). Based on the data, it was decided to use 0.2×10^6 cells/ml and 70 ng of DNA in the assay.
Known null and out/in-frame deletion mutants disrupting E2F1 binding and unknown COSMIC mutants were created to examine the ability of the assay to detect variants in Rb that affect function. We transfected WT or mutated Rb using similar conditions as previously indicated (FIG. 20). […] In addition, the null C706F and deletion (del1) mutants presented a signal close to zero as expected for loss of function mutants that disrupt E2F1 interaction. […] This confirmed that the assay was capable of determining the relative activity level of Rb mutants. The data is provided in Luminescence (RLU) of a single experiment with each condition performed in triplicate and represent average+SD.

13 molecules from patent US11702666B2, “Cell-based assay for determining activity in the retinoblastoma pathway” (Medical Diagnostic Laboratories, LLC, priority 2017, dated 2023) can be followed below.

Positions count from the first letter of the chain named. Names may count otherwise. “Also recorded” adds a separate entry of the source.

B1: Rb R661W: known Rb null mutant (protein, UniProt P06400 2-928, looked up, variant R661W)
Retinoblastoma-associated …: PPKTPRKTAATAAAAAAEPPAPPPPPPPEEDPEQDSGPEDLPLVRLEFEETEEPDFTALCQKLKIPDHVRERAWLTWEKVSSVDGVLGGYIQKKKELWGICIFIAAVDLDEMSFTFTELQKNIEISVHKFFNLLKEIDTSTKVDNAMSRLLKKYDVLFALFSKLERTCELIYLTQPSSSISTEINSALVLKVSWITFLLAKGEVLQMEDDLVISFQLMLCVLDYFIKLSPPMLLKEPYKTAVIPINGSPRTPRRGQNRSARIAKQLENDTRIIEVLCKEHECNIDEVKNVYFKNFIPFMNSLGLVTSNGLPEVENLSKRYEEIYLKNKDLDARLFLDHDKTLQTDSIDSFETQRTPRKSNLDEEVNVIPPHTPVRTVMNTIQQLMMILNSASDQPSENLISYFNNCTVNPKESILKRVKDIGYIFKEKFAKAVGQGCVEIGSQRYKLGVRLYYRVMESMLKSEEERLSIQNFSKLLNDNIFHMSLLACALEVVMATYSRSTSQNLDSGTDLSFPWILNVLNLKAFDFYKVIESFIKAEGNLTREMIKHLERCEHRIMESLAWLSDSPLFDLIKQSKDREGPTDHLESACPLNLPLQNNHTAADMYLSPVRSPKKKGSTTRVNSTANAETQATSAFQTQKPLKSTSLSLFYKKVYRLAYLWLNTLCERLLSEHPELEHIIWTLFQHTLQNEYELMRDRHLDQIMMCSMYGICKVKNIDLKFKIIVTAYKDLPHAVQETFKRVLIKEEEYDSIIVFYNSVFMQRLKTNILQYASTRPPTLSPIPHIPRSPYKFPSSPLRIPGGNIYISPLKSPYKISEGLPTPTKMTPRSRILVSIGESFGTSEKFQKINQMVCNSDRVLKRSAEGSNPPKPLKKLRFDIEGSDEADGSKHLPGESKFQQKLAEMTSTRTRMQKQKMNDSMDTSNKEEK
As to B1, the “luciferase activity / E2F1 interaction of Rb mutant” value is listed as “completely disrupted the E2F1 interaction”, the Observed activity entry is given as “N” and the “% (/wt)” value turned out to be 5.2%.

B2: Rb A488V: Rb mutant from COSMIC database (protein, UniProt P06400 2-928, looked up, variant A488V)
Retinoblastoma-associated …: B1 Retinoblastoma-associated … with A487V, W660R
As for B2, the Observed activity entry is listed as “R” and the “% (/wt)” value is 51%.

B3: Rb I724N: Rb mutant from COSMIC database (protein, UniProt P06400 2-928, looked up, variant I724N)
Retinoblastoma-associated …: B1 Retinoblastoma-associated … with W660R, I723N
In the case of B3, the Observed activity entry is reported as “N” and the “% (/wt)” value turned out to be 7.4%.

B4: Rb L665R: Rb mutant from COSMIC database (protein, UniProt P06400 2-928, looked up, variant L665R)
Retinoblastoma-associated …: B1 Retinoblastoma-associated … with W660R, L664R
B4: the Observed activity result is “N” and the “% (/wt)” value stood at 5%.

B5: Rb R698W: Rb mutant from COSMIC database (protein, UniProt P06400 2-928, looked up, variant R698W)
Retinoblastoma-associated …: B1 Retinoblastoma-associated … with W660R, R697W
On to B5, for which the Observed activity result is “N” and the “% (/wt)” value amounted to 6.4%.

B6: Rb R621S: Rb mutant from COSMIC database (protein, UniProt P06400 2-928, looked up, variant R621S)
Retinoblastoma-associated …: B1 Retinoblastoma-associated … with R620S, W660R
For the molecule B6, the Observed activity entry is “A” and the “% (/wt)” value was determined as 124%.

B7: Rb R798Q: Rb mutant from COSMIC database (protein, UniProt P06400 2-928, looked up, variant R798Q)
Retinoblastoma-associated …: B1 Retinoblastoma-associated … with W660R, R797Q
In the case of B7, the Observed activity result is on record as “A” and the “% (/wt)” value stood at 92%.

B8: Rb C706F: known Rb null mutant (protein, UniProt P06400 2-928, looked up, variant C706F)
Retinoblastoma-associated …: B1 Retinoblastoma-associated … with W660R, C705F
In the case of B8, the “luciferase activity / E2F1 interaction of Rb mutant” value is listed as “completely disrupted the E2F1 interaction; also recorded: close to zero”, the Observed activity entry is recorded as “N” and the “% (/wt)” value was 5.5%.

B9: Rb V654M: Rb mutant from COSMIC database (protein, UniProt P06400 2-928, looked up, variant V654M)
Retinoblastoma-associated …: B1 Retinoblastoma-associated … with V653M, W660R
Regarding B9, the Observed activity entry is “A” and the “% (/wt)” value is 132%.

B10: Rb E440K: Rb mutant from COSMIC database (protein, UniProt P06400 2-928, looked up, variant E440K)
Retinoblastoma-associated …: B1 Retinoblastoma-associated … with E439K, W660R
For the molecule B10, the Observed activity result was “R” and the “% (/wt)” value was 47%.

B11: Rb R656W: Rb mutant from COSMIC database (protein, UniProt P06400 2-928, looked up, variant R656W)
Retinoblastoma-associated …: B1 Retinoblastoma-associated … with R655W, W660R
Take B11: the Observed activity entry is recorded as “A” and the “% (/wt)” value is on record as 79%.

B12: Rb R798W: Rb mutant from COSMIC database (protein, UniProt P06400 2-928, looked up, variant R798W)
Retinoblastoma-associated …: B1 Retinoblastoma-associated … with W660R, R797W
On to B12, for which the Observed activity entry is “A” and the “% (/wt)” value is listed as 120%.

B13: Rb I680T: Rb mutant from COSMIC database (protein)
chain: MVFTLEDFVGDWEQTAAYNLDQVLEQGGVSSLLQNLAVSVTPIQRIVRSGENALKIDIHVIIPYEGLSADQMAQIEEVFKVVYPVDDHHFKVILPYGTLVIDGVTPNMLNYFGRPYEGIAVFDGKKITVTGTLWNGNKIIDERLITPDGSMLFRVTINSGSSGGGGSGGGGSSGGAQGNSNTIQQLMMILNSASDQPSENLISYFNNCTVNPKESILKRVKDIGYIFKEKFAKAVGQGCVEIGSQRYKLGVRLYYRVMESMLKSEEERLSIQNFSKLLNDNIFHMSLLACALEVVMATYSRSTSQNLDSGTDLSFPWILNVLNLKAFDFYKVIESFIKAEGNLTREMIKHLERCEHRIMESLAWLSDSPLFDLIKQSKDREGPTDHLESACPLNLPLQNNHTAADMYLSPVRSPKKKGSTTRVNSTANAETQATSAFQTQKPLKSTSLSLFYKKVYRLAYLRLNTLCERLLSEHPELEHITWTLFQHTLQNEYELMRDRHLDQIMMCSMYGICKVKNIDLKFKIIVTAYKDLPHAVQETFKRVLIKEEEYDSIIVFYNSVFMQRLKTNILQYASTRPPTLSPIPHIPRSPYKFPSSPLRIPGGNIYISPLKSPYKISEGLPTPTKMTPRSRILVSIGESFGTSEKFQKINQMVCNSDRVLKRSAEGSNPPKPLKKLRFDIEGSDEADGSKHLPGESKFQQKLAEMTSTRTRMQKQKMNDSMDTSNKEEK
On to B13, for which the Observed activity entry is listed as “R” and the “% (/wt)” value turned out to be 32%.
